# According to patent publication US20050266242A1:
# Molecular target: seed (assembled NM protein, preformed fibers used to seed fiber elongation in Example 10) (Saccharomyces cerevisiae) (UniProt P05453)
# Assay: seeded fiber elongation, sedimentation and wavelength shift assays, Lineweaver-Burk plot
# Sequence of seed (assembled NM protein, preformed fibers used to seed fiber elongation in Example 10) (Saccharomyces cerevisiae) (P05453 1-253): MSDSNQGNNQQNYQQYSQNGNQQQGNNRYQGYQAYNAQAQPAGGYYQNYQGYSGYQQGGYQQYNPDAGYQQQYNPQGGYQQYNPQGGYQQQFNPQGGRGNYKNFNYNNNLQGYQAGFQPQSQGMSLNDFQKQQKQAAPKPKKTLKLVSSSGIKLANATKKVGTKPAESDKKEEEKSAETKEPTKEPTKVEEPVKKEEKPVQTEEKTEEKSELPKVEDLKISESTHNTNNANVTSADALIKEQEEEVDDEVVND
substance,measurement,value
NM^T158C-acrylodan (from UniProt P05453 1-253) (other; other documents disagree on this pair),Km,0.12 µM
same,Vmax (maximal rate of conformational conversion),0.001 µmol/s
same,kconf (rate constant of conformational conversion),0.005 s⁻¹
same,kconf/Km (conformational conversion efficiency),42000 M⁻¹ s⁻¹
